Measured values: patent US20150010575A1 (SAMSUNG ELECTRONICS, published 2015)

Biological target: T1, human c-Met/Fc fusion protein (R&D Systems) (human, UniProt P08581 25-932)
T1 construct: Bought from R&D Systems; Coated on microtiter plates at 2 ug/mL; also called human c-Met/Fc protein; not shown: Fc part of the bought fusion protein; not described
Assay: ELISA, human c-Met/Fc coated at 2 ug/mL, hybridoma culture, anti-mouse IgG-HRP
Experimental: Human c-Met/Fc fusion protein was seeded in an amount of 50 μL (2 μg/mL)/well to microtiter plates and allowed to adhere to the surface of each well. The antibody that remained unbound was removed by washing.
The hybridoma cell culture obtained in Reference Example 1.1.2 was added in an amount of 50 μL to each well of the plates and incubated for 1 hour. The cells remaining unreacted were washed out with a sufficient amount of Tris-buffered saline and Tween 20 (TBST). Goat anti-mouse IgG-horseradish peroxidase (HRP) was added to the plates and incubated for 1 hour at room temperature. The plates were washed with a sufficient amount of TBST, followed by reacting the peroxidase with a substrate (OPD). Absorbance at 450 nm was measured on an ELISA reader.

T1 sequence (P08581 25-932 limits assumed): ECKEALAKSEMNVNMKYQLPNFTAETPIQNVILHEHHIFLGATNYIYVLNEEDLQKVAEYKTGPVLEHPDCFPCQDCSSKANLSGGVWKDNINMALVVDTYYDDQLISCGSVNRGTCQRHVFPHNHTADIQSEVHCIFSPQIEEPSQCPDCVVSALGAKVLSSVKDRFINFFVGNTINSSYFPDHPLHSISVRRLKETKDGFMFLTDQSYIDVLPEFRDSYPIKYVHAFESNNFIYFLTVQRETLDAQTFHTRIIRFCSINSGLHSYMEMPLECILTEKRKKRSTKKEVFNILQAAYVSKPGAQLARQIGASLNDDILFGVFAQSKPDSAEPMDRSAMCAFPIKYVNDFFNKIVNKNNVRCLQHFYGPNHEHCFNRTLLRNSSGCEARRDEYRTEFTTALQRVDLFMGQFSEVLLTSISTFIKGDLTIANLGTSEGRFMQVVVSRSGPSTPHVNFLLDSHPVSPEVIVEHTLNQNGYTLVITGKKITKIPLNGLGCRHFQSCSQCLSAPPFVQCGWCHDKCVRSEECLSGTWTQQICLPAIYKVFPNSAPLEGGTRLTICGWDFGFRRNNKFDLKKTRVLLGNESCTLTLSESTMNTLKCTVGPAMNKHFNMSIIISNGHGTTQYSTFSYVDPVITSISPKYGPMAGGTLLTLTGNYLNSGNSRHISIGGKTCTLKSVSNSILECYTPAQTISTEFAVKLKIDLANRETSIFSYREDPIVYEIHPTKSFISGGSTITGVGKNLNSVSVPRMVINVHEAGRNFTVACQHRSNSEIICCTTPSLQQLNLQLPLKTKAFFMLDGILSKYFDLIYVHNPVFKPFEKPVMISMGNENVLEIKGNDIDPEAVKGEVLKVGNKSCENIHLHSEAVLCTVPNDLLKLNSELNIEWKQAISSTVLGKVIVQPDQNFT

binding result: binds
B1: AbF46, a mouse antibody to c-Met (antibody, V domains shown)
VH: EVKLVESGGGLVQPGGSLRLSCATSGFTFTDYYMSWVRQPPGKALEWLGFIRNKANGYTTEYSASVKGRFTISRDNSQSILYLQMDTLRAEDSATYYCARDNWFAYWGQGTLVTVSA
VL: DILMTQSPSSLTVSAGEKVTMSCKSSQSLLASGNQNNYLAWHQQKPGRSPKMLIIWASTRVSGVPDRFIGSGSGTDFTLTINSVQAEDLAVYYCQQSYSAPLTFGAGTKLELK
notes: Mouse monoclonal antibody, tested as hybridoma culture supernatant in the selection ELISA; also called monoclonal antibody of hybridoma KCLRF-BP-00220
